B1: HSV-tagged 16K derivative α2 (helix 2, amino acids 35-88) (other, not shown: small tags and cut ends)
chain: AKSGTGIAAMSVMRPEQIMKSIIPVVMAGIIAIYGLVVAVLIANSLNDDISLYK

Molecular target: T1, T7-epitope tagged bovine β1 integrin (bovine, UniProt P53712 21-798)
T1 construct: mature; Expressed in HEK293 cells and detected in lysates with anti-T7 antibody; also called T7-β1 integrin; T7 tagged β1; not shown: le
Assay: co-immunoprecipitation with anti-HSV antibody, anti-T7 Western blot (FIG. 5B panel c)
Description: 16K derivatives were cotransfected with T7 tagged β1 integrin into HEK293 cells. Integrin expression was assessed by Western blot analysis of RIPA lysates probed with anti-T7 antibody (panel a), and glycosylation by GlcNAc-TV was assessed by incubating extracts with agarose-conjugated L-PHA and analysing recovered proteins with anti-T7 antibody (panel b). Proteins interacting with 16K or 16K mutants were isolated by immunoprecipitation using anti-HSV antibody followed by agarose conjugated protein A, and recovery of T7-β1 integrin monitored by Western blot analysis using anti-T7 antibody (panel c).
RIPA lysates made from HEK293 cells transiently transfected with pXJ41-T7-β1 were resolved on 8% SDS-PAGE, transferred to nitrocellulose, and probed with anti-T7 antibody. Alternatively, lysates were treated with endoglycosidase H (2 units) or glycopeptidase F and incubated at 37° C. overnight in the manufacturer's (Calbiochem) recommended buffers. Agarose conjugated L-PHA and ConA were used to isolate β1-6 branched and high mannose forms of β1 integrin respectively. Lysates made from cells co-transfected with HSV tagged 16K were treated with anti-HSV antibody and agarose-conjugated protein A and recovered complexes were analysed by Western blot as above. […]

T1 sequence (P53712 21-798): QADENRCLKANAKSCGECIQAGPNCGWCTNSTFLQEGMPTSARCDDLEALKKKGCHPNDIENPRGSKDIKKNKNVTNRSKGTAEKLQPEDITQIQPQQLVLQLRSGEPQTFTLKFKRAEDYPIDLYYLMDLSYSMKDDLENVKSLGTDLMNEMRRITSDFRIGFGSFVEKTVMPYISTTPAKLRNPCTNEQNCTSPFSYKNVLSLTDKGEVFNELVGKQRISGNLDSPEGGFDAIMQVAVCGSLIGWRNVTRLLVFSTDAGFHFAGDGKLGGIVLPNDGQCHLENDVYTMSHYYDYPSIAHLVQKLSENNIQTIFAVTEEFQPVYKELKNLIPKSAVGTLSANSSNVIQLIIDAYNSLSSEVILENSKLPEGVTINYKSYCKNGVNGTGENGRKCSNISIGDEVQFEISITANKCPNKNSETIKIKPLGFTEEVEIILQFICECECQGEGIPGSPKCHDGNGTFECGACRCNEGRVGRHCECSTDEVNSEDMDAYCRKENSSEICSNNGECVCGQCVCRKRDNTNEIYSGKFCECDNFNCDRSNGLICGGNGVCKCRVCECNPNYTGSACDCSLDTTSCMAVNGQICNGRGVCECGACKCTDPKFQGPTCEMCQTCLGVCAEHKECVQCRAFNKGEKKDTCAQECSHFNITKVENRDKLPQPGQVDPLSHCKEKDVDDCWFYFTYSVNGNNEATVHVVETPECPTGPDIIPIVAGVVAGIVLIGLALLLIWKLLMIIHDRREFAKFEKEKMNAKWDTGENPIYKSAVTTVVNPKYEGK

Binder	binding result
B1	no binding
GIVGDAGVRGTAQQPRLFVGMILILIFAEVLGLYGLIVALILSTK (other, not shown: small tags and cut ends) [HSV-tagged 16K derivative α4 (helix 4, amino acids 111-156)]	no binding
